Experimental data published in patent US20180236053A1 (CELLECTIS, published 2018).

B1: 13F11-V1 CAR (other)
chain: QIQLVQSGPELKKPGETVKISCKASGYTFKKYGMNWVKQAPGKGLKWMGWINTNTGEPTYAEEFKGRFAFSLETSASTAYLQINNLKNEDTATYFCARWYYGSTPSSYTMDYWGQGTSVTVSSGGGGSGGGGSGGGGSETTVTQSPASLSVATGEKVTIRCITSTDIDDDMNWYQQKPGEPPKVLISEGNTLRPGVPSRFSSSGYGTDFVFTIENTLSEDVADYYCLQSNNMPYTFGGGTKLEIKGLAVSTISSFFPPGYQIYIWAPLAGTCGVLLLSLVITLYCKRGRKKLLYIFKQPFMRPVQTTQEEDGCSCRFPEEEEGGCELRVKFSRSADAPAYQQGQNQLYNELNLGRREEYDVLDKRRGRDPEMGGKPRRKNPQEGLYNELQKDKMAEAYSEIGMKGERRRGKGHDGLYQGLSTATKDTYDALHMQALPPR
B2: 13F11-V3 CAR (other)
chain: QIQLVQSGPELKKPGETVKISCKASGYTFKKYGMNWVKQAPGKGLKWMGWINTNTGEPTYAEEFKGRFAFSLETSASTAYLQINNLKNEDTATYFCARWYYGSTPSSYTMDYWGQGTSVTVSSGGGGSGGGGSGGGGSETTVTQSPASLSVATGEKVTIRCITSTDIDDDMNWYQQKPGEPPKVLISEGNTLRPGVPSRFSSSGYGTDFVFTIENTLSEDVADYYCLQSNNMPYTFGGGTKLEIKEPKSPDKTHTCPPCPAPPVAGPSVFLFPPKPKDTLMIARTPEVTCVVVDVSHEDPEVKFNWYVDGVEVHNAKTKPREEQYNSTYRVVSVLTVLHQDWLNGKEYKCKVSNKALPAPIEKTISKAKGQPREPQVYTLPPSRDELTKNQVSLTCLVKGFYPSDIAVEWESNGQPENNYKTTPPVLDSDGSFFLYSKLTVDKSRWQQGNVFSCSVMHEALHNHYTQKSLSLSPGKIYIWAPLAGTCGVLLLSLVITLYCKRGRKKLLYIFKQPFMRPVQTTQEEDGCSCRFPEEEEGGCELRVKFSRSADAPAYQQGQNQLYNELNLGRREEYDVLDKRRGRDPEMGGKPRRKNPQEGLYNELQKDKMAEAYSEIGMKGERRRGKGHDGLYQGLSTATKDTYDALHMQALPPR
B3: 16B5-V1 CAR (other)
chain: QAYLQQSGAELVRSGASVKMSCKASGYTFTSYNLHWVKQTPGQGLEWIGYIYPGNGGTNYNQKFKGKATLTADTSSSTAYMQISSLTSEDSAVYFCARGGIYYYGSSLDYWGQGTTLTVSSGGGGSGGGGSGGGGSNIVLTQSPASLAVSLGQRATISCRASESVDNYGTTFMYWYQQKPGQPPKLLIYLASNLESGVPARFSGSGSGTDFTLTIDPVEADDAATYYCQQNKEDPWTFGGGTKLEIKGLAVSTISSFFPPGYQIYIWAPLAGTCGVLLLSLVITLYCKRGRKKLLYIFKQPFMRPVQTTQEEDGCSCRFPEEEEGGCELRVKFSRSADAPAYQQGQNQLYNELNLGRREEYDVLDKRRGRDPEMGGKPRRKNPQEGLYNELQKDKMAEAYSEIGMKGERRRGKGHDGLYQGLSTATKDTYDALHMQALPPR
B4: 16B5-V2 CAR (other)
chain: QAYLQQSGAELVRSGASVKMSCKASGYTFTSYNLHWVKQTPGQGLEWIGYIYPGNGGTNYNQKFKGKATLTADTSSSTAYMQISSLTSEDSAVYFCARGGIYYYGSSLDYWGQGTTLTVSSGGGGSGGGGSGGGGSNIVLTQSPASLAVSLGQRATISCRASESVDNYGTTFMYWYQQKPGQPPKLLIYLASNLESGVPARFSGSGSGTDFTLTIDPVEADDAATYYCQQNKEDPWTFGGGTKLEIKTTTPAPRPPTPAPTIASQPLSLRPEACRPAAGGAVHTRGLDFACDIYIWAPLAGTCGVLLLSLVITLYCKRGRKKLLYIFKQPFMRPVQTTQEEDGCSCRFPEEEEGGCELRVKFSRSADAPAYQQGQNQLYNELNLGRREEYDVLDKRRGRDPEMGGKPRRKNPQEGLYNELQKDKMAEAYSEIGMKGERRRGKGHDGLYQGLSTATKDTYDALHMQALPPR
B5: 28F5-V1 CAR (other)
chain: QIQLVQSGPELKKPGETVKISCKASGYTFTKYGMNWVKQTPGKGLKWMGWINTNSGEPTYAEEFKGRFAFSLETSASTAYLQINNLKNEDTATYFCARGAYYRYDGEVSYYAMDYWGQGTSVTVSSGGGGSGGGGSGGGGSQIILTQSPAIMSASLGERVTMTCTATSSLSSSYLHWYQQKPGSSPKLWIYSTSHLASGVPARFSGGGSGTSYSLTISSMEAEDAATYYCHQYHLSPYTFGGGTKLEIKGLAVSTISSFFPPGYQIYIWAPLAGTCGVLLLSLVITLYCKRGRKKLLYIFKQPFMRPVQTTQEEDGCSCRFPEEEEGGCELRVKFSRSADAPAYQQGQNQLYNELNLGRREEYDVLDKRRGRDPEMGGKPRRKNPQEGLYNELQKDKMAEAYSEIGMKGERRRGKGHDGLYQGLSTATKDTYDALHMQALPPR
notes: Chimeric antigen receptor on T cells; signal peptide left out here
B6: GMB005-V1 CAR (other)
chain: EVQLLESGGGLVQPGGSLRLSCAVSGFTFNSFAMSWVRQAPGKGLEWVSAISGSGGGTYYADSVKGRFTISRDNSKNTLYLQMNSLRAEDTAVYFCAKDKILWFGEPVFDYWGQGTLVTVSSASGGGGSGGGGSGGGGSEIVLTQSPATLSLSPGERATLSCRASQSVSSYLAWYQQKPGQAPRLLIYDASNRATGIPARFSGSGSGTDFTLTISSLEPEDFAVYYCQQRSNWPPTFGQGTKVEIKGLAVSTISSFFPPGYQIYIWAPLAGTCGVLLLSLVITLYCKRGRKKLLYIFKQPFMRPVQTTQEEDGCSCRFPEEEEGGCELRVKFSRSADAPAYQQGQNQLYNELNLGRREEYDVLDKRRGRDPEMGGKPRRKNPQEGLYNELQKDKMAEAYSEIGMKGERRRGKGHDGLYQGLSTATKDTYDALHMQALPPR
B7: 13F11-V2 CAR (other)
chain: QIQLVQSGPELKKPGETVKISCKASGYTFKKYGMNWVKQAPGKGLKWMGWINTNTGEPTYAEEFKGRFAFSLETSASTAYLQINNLKNEDTATYFCARWYYGSTPSSYTMDYWGQGTSVTVSSGGGGSGGGGSGGGGSETTVTQSPASLSVATGEKVTIRCITSTDIDDDMNWYQQKPGEPPKVLISEGNTLRPGVPSRFSSSGYGTDFVFTIENTLSEDVADYYCLQSNNMPYTFGGGTKLEIKTTTPAPRPPTPAPTIASQPLSLRPEACRPAAGGAVHTRGLDFACDIYIWAPLAGTCGVLLLSLVITLYCKRGRKKLLYIFKQPFMRPVQTTQEEDGCSCRFPEEEEGGCELRVKFSRSADAPAYQQGQNQLYNELNLGRREEYDVLDKRRGRDPEMGGKPRRKNPQEGLYNELQKDKMAEAYSEIGMKGERRRGKGHDGLYQGLSTATKDTYDALHMQALPPR
notes: as for B5
B8: 25A10-V2 CAR (other)
chain: EVQLQQSGAELVRPGASVKLSCTASGFNIKDSLIHWVKQRPEQGLEWIGWIDPEDDKTKYAPKFQDKATLTADTSSNTAYLQLSTLTSEDTAIYYCVSRYINYYFAYWGQGTTLTVSSGGGGSGGGGSGGGGSDIVMTQSPSSLTVTAGEKVTMSCKSSQSLLHSGNQRNYLTWYQQKPGQPPKLLIYWASTRESGVPDRFTGSGSGTDFTLTISSVQAEDLAVYYCQNDYDYPYTFGGGTKLEIKTTTPAPRPPTPAPTIASQPLSLRPEACRPAAGGAVHTRGLDFACDIYIWAPLAGTCGVLLLSLVITLYCKRGRKKLLYIFKQPFMRPVQTTQEEDGCSCRFPEEEEGGCELRVKFSRSADAPAYQQGQNQLYNELNLGRREEYDVLDKRRGRDPEMGGKPRRKNPQEGLYNELQKDKMAEAYSEIGMKGERRRGKGHDGLYQGLSTATKDTYDALHMQALPPR
notes: as for B5

Key:
[1] = target: CD38 antigen on the surface of cells (U266 CD38+, MOLP8, Daudi, T-ALL cell lines, activated T cells) (human, UniProt P28907 1-300); assay: cell-based or functional assay
[2] = target: T1, CD38-Fc protein (produced by LakePharma) (UniProt P28907 43-300, limits assumed); assay: flow cytometry, CD38 Fc staining of CD38/TRAC double KO T cells transduced with rLV (FIG. 27C)
T1 construct: Staining reagent for CAR detection by flow cytometry; also called CD38-Fc fusion protein; not shown: Fc part
Procedure: The parameters are the following: T cells were activated by using Dynabeads CD3-CD28, the culture were made by using medium Xvivo+5% human serum heat inactivated+IL-2 20 ng/ml, a double KO (DKO) CD38-TRAC was performed by using a ratio of 2 μg TALEN mRNA per million of cells (5 million cells/cuvette); the transduction was performed by using rLV from Vectalys(France) at a MOI of 5.
The screening of the 4 CARs 25A10-v1, -v2, 28F5-v1 and -v2 after rLV transduction in DKO T cells has shown that all the CARs were expressed at the T cell surface with a high efficiency (>40%) and 3 of them above 80% (FIG. 27C). RQR8 expression was correlated with CAR expression (FIG. 27A). Most of the T cells were CD38 negative when T cells have been transduced by CD38 CARs (FIG. 27A). It is shown also that 60-85% of T cells endowed with the above 4 CARs were DKO TRAC/CD38 (FIG. 27B).

[3] = target: T1, CD38-Fc protein (produced by LakePharma); assay: flow cytometry, CD38-Fc fusion protein staining of purified CD38-deficient T cells transfected with CAR mRNA (FIG. 15)
Procedure: T cells were purified from buffy coat samples and activated using anti-CD3/CD28 coated beads and IL-2. CD38-1 TALEN mRNA was transfected in T cells at day 4 after activation, 6 days later CD38 negative cells were purified by using magnetic separation (Miltenyi). The day after, CAR mRNAs were transfected. The CAR expression and degranulation capacity of CART cells were assessed 24 hours after the transfection. CAR expression and cytotoxic capacity of CART cells were assessed 48 hours after the transfection.
All CARs were detected 24 h after transfection except the 25A10-V3 However, the latter expressed anti-CD38 CAR above the background. The 13F11-V2, 25A10-V1, 25A10-V2 and 28F5-V2 were highly expressed (more than 80%).

Binder | ratio of degranulation against U266 CD38+ and U266 CD38- [1] [ratio] | % of T cells stained by CD38-Fc (CAR expression) [2] [%] | % of T cells stained by CD38-Fc (CAR expression) [3] [%]
B1 | > 2 | – | –
B2 | > 2 | – | –
B3 | > 2 | – | –
B4 | > 2 | – | –
B5 | > 2 | > 40 | –
B6 | > 2 | – | –
B7 | – | – | > 80
B8 | – | > 40 | > 80
